Where “and” joins values, the source holds several entries; their conditions need not be identical. Equal values may be shown once.

Assay [1] deals with T1, recombinant human IL-12 (rhIL-12) (human, UniProt P29459 23-219; P29460 23-328).
T1 construct: disulfide-linked p35/p40 heterodimer (p70); also called IL-12 p70; rec. human IL12
T1 sequence (looked up) 1: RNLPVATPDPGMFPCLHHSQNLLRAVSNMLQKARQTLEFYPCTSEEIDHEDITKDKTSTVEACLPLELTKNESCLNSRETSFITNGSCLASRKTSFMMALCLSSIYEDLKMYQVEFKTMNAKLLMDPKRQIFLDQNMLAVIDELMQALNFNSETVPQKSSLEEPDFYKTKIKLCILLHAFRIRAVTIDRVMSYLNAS
T1 sequence (looked up) 2: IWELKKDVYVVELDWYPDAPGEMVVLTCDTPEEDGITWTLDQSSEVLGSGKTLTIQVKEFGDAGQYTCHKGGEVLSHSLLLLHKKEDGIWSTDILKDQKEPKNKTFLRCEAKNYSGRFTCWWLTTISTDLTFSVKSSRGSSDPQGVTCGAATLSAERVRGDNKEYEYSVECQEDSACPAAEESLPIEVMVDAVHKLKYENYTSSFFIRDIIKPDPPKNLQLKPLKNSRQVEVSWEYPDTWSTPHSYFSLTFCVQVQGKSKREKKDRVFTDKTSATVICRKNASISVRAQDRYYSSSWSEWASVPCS
As to the kind of experiment: BIAcore SPR, rhIL-12. The procedure:
(§1) Before injection of the protein and immediately afterward, HBS buffer alone flowed through each flow cell. […] Cytokines were diluted in HBS running buffer and 50 μl aliquots were injected through the immobilized protein matrices at a flow rate of 5 μl/min. […] The net difference in baseline signal and signal after completion of cytokine injection was taken to represent the binding value of the particular sample. Biosensor matrices were regenerated using 100 mM HCl before injection of the next sample. To determine the dissociation constant (off-rate), association constant (on-rate), BIAcore kinetic evaluation software (version 2.1) was used.
Kd was calculated for each separate experiment and then averaged.
(In SPR one partner is held on a chip, and binding of the other changes the refractive index at the surface.)

The target in assay [2] is T1, recombinant human IL-12 (rhIL-12). Kind of assay: BIAcore, captured J695, soluble rhIL-12, average. The procedure:
as §1

Assay [3] concerns the target T2, human IL-1α (human, UniProt P01583 113-271).
T2 sequence (looked up): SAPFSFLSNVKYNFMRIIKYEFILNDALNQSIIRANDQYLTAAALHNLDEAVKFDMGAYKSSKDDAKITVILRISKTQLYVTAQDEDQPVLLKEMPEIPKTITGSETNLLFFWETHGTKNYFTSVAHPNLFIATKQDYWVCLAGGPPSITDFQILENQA
As to the kind of experiment: competition ELISA: soluble cytokine against J695 (100 ng/ml) binding to immobilized human IL-12. As to the method:
(§2) The plates were washed 4 times and incubated for 1 h at room temperature with 100 μl mouse anti-human lambda-HRP (1:500 in PBS-T/BSA, Southern Biotech. Ass. Inc., Birmingham, Ala.). The plates were washed 4 times and developed with ABTS (Kirkegaard & Perry Lab, Gaithersburg, Md.) for 20-30 minutes in the dark. The OD₄₅₀ nm was read using a microplate reader (Molecular Devices, Menlo Park, Calif.).
(In general: ELISA stands for enzyme-linked immunosorbent assay.)

Assay [4] concerns the target human IL-2 (human, UniProt P60568 21-153). The description is as above. The procedure: as §2
In assay [5] the target is T3, human IL-4 (human, UniProt P05112 25-153).
T3 sequence (looked up): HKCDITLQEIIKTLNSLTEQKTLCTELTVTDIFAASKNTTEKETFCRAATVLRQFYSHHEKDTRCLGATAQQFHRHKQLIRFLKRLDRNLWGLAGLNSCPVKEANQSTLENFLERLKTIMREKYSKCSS
The assay is described as above. The procedure: as §2

Assay [6] addresses human IL-10 (human, UniProt P22301 19-178). Described as above. The procedure: as §2
The target of assay [7] is T4, human IFN-gamma (human, UniProt P01579 24-166, limits assumed).
T4 sequence (looked up): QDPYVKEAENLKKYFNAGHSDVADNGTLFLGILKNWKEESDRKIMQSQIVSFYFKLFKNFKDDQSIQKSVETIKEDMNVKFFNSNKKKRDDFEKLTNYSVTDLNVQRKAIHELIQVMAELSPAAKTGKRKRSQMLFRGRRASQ
The assay is described as above. As to the method: as §2

For assay [8], the target named is human IGF-I (human, UniProt P05019 49-118). The assay is described as above. The procedure:
as §2

For assay [9], the target named is T5, human lymphotoxin (human, UniProt P01374 35-205, limits assumed).
T5 sequence (looked up): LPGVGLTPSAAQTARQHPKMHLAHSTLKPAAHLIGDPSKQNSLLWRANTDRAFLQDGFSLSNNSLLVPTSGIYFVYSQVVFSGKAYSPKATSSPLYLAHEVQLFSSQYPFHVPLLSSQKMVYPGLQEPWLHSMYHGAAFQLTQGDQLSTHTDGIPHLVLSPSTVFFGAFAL
The assay is described as above. As to the method: as §2

The target of assay [10] is human IL-6 (human, UniProt P05231 30-212). The assay is described as above. The procedure: as §2
human IL-6, sequence (P05231 30-212 limits assumed): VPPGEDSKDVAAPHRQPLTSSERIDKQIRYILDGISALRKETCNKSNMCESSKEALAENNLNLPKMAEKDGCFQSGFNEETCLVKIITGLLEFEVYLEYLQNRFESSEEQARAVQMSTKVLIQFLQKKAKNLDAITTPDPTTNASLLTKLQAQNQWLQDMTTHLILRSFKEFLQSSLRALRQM
Assay [11] deals with T6, human soluble IL-6 receptor (human, UniProt P08887 20-358).
T6 construct: Soluble form
T6 sequence (looked up): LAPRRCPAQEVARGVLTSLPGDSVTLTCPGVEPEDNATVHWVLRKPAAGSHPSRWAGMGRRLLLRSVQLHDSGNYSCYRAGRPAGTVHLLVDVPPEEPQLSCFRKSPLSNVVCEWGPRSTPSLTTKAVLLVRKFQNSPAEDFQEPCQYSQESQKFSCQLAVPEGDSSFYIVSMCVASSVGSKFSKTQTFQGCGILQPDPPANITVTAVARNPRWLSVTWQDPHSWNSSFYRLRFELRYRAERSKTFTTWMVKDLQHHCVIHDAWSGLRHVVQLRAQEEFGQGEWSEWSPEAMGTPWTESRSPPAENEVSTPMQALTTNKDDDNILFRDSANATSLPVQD
The description is as above. As to the method:
as §2

Assay [12] has as its target human LIF (human, UniProt P15018 23-202). The description is as above. The procedure: as §2

human LIF, sequence (P15018 23-202 limits assumed): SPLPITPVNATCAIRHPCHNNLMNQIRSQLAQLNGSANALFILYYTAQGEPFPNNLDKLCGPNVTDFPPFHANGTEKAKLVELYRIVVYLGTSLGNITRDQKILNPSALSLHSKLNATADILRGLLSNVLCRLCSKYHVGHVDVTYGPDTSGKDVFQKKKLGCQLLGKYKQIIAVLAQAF
human IL-2, sequence (P60568 21-153 limits assumed): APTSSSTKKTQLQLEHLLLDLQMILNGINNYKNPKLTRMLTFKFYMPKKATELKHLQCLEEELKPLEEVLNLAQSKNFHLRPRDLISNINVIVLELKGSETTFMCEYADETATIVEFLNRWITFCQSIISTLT
human IL-10, sequence (P22301 19-178 limits assumed): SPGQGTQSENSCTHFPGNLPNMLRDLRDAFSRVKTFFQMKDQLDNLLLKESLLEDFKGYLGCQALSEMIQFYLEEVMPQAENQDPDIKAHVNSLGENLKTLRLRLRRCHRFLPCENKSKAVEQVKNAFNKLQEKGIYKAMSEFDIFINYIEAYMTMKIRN

B1: J695 (antibody, human IgG1, V domains shown)
VH: QVQLVESGGGVVQPGRSLRLSCAASGFTFSSYGMHWVRQAPGKGLEWVAFIRYDGSNKYYADSVKGRFTISRDNSKNTLYLQMNSLRAEDTAVYYCKTHGSHDNWGQGTMVTVSS
VL: QSVLTQPPSVSGAPGQRVTISCSGSRSNIGSNTVKWYQQLPGTAPKLLIYYNDQRPSGVPDRFSGSKSGTSASLAITGLQAEDEADYYCQSYDRYTHPALLFGTGTKVTVLG
notes: human IgG1 with lambda light chain
The Kd is a measure of binding affinity in units of concentration. Regarding B1, the Kd in assay [1] was 0.119 nM and 0.149 nM; in assay [2] it was 0.134 nM and 0.0974 nM.

B2: J695 (antibody, V domains shown)
VH: QVQLVESGGGVVQPGRSLRLSCAASGFTFSSYGMHWVRQAPGKGLEWVAFIRYDGSNKYYADSVKGRFTISRDNSKNTLYLQMNSLRAEDTAVYYCKTHGSHDNWGQGTMVTVSS
VL: QSVLTQPPSVSGAPGQRVTISCSGSRSNIGSNTVKWYQQLPGTAPKLLIYYNDQRPSGVPDRFSGSKSGTSASLAITGLQAEDEADYYCQSYDRYTHPALLFGTGTKVTVLG
notes: Human IgG1 with lambda light chain (detected with anti-human lambda); Made in CHO or COS cells
In the case of B2, the binding result in assay [3], in assay [4], in [5], in assay [6], in assay [7] and in assay [8] was “no binding (tested: 2 nM)” in each case. Further, the binding result in assay [9], in assay [10], in assay [11] and in [12] was “no binding (tested: 2 nM)” each time.

The record behind these values is patent US20150037348A1 (AbbVie / Abbott, published 2015).
